# B1: SNAP91 (parent)
# chain: FATASAAVPVSTSKPSSDLLDLQP
# Variants of: B1
# Assay: protein stability index of a GFP-peptide fusion (GPS, HEK-293T) (PSI 1-6); higher = more stable
# Conditions: c terminus: a fixed tail appended
# 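Also: lentivirally expressed fusions sorted by FACS into six bins by GFP to DsRed ratio, PSI derived from sequencing read proportions per bin multiplied by bin number.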
row,Variant,protein stability index
1,FATASAAVPVSTSKPSSDLLRLQP,3.28
2,FATASAAVPVSTSKPSSDLLELQP,4.22
3,FATASAAVPVSTSKPSSDLLYLQP,2.67
4,FATASAAVPVSTSKPSSDLLMLQP,3.23
5,FATASAAVPVSTSKPSSDLLPLQP,3.79
6,FATASAAVPVSTSKPSSDLLVLQP,3.23
7,FATASAAVPVSTSKPSSDLLILQP,2.93
8,FATASAAVPVSTSKPSSDLLKLQP,3.41
9,FATASAAVPVSTSKPSSDLLNLQP,3.59
10,FATASAAVPVSTSKPSSDLLWLQP,1.78
11,FATASAAVPVSTSKPSSDLLSLQP,3.25
12,FATASAAVPVSTSKPSSDLLCLQP,2.91
13,FATASAAVPVSTSKPSSDLLFLQP,2.52
14,FATASAAVPVSTSKPSSDLLHLQP,3.27
15,FATASAAVPVSTSKPSSDLLALQP,3.4
16,FATASAAVPVSTSKPSSDLLGLQP,4.09
17,FATASAAVPVSTSKPSSDLLQLQP,3.57
18,FATASAAVPVSTSKPSSDLLLLQP,2.48
19,FATASAAVPVSTSKPSSDLLTLQP,3.51
20,FATASAAVPVSTRKPSSDLLDLQP,3.94
21,FATASAAVPVSTTKPSSDLLDLQP,3.38
22,FATASAAVPVSTYKPSSDLLDLQP,3.36
23,FATASAAVPVSTVKPSSDLLDLQP,3.52
24,FATASAAVPVSTWKPSSDLLDLQP,2.67

row,Variant,protein stability index
1,FATASAAVPVSTSKPNSDLLDLQP,3.81
2,FATASAAVPVSTSKPASDLLDLQP,4.02
3,FATASAAVPVSTSKPDSDLLDLQP,4.24
4,FATASAAVPVSTSKPYSDLLDLQP,3.08
5,FATASAAVPVSTSKPESDLLDLQP,3.87
6,FATASAAVPVSTSKPRSDLLDLQP,3.3
7,FATASAAVPVSTSKPHSDLLDLQP,3.71
8,FATASAAVPVSTSKPVSDLLDLQP,3.6
9,FATASAAVPVSTSKPCSDLLDLQP,3.36
10,FATASAAVPVSTSKPPSDLLDLQP,3.5
11,FATASAAVPVSTSKPGSDLLDLQP,3.57
12,FATASAAVPVSTSKPTSDLLDLQP,3.03
13,FATASAAVPVSTSKPKSDLLDLQP,3.43
14,FATASAAVPVSTSKPLSDLLDLQP,2.83
15,FATASAAVPVSTSKPFSDLLDLQP,2.99
16,FATASAAVPVSTSKPISDLLDLQP,3.24
17,FATASAAVPVSTSKPWSDLLDLQP,1.54
18,FATASAAVPVSTSKPQSDLLDLQP,3.93
19,FATASAAVPVSTSKPMSDLLDLQP,3.43
20,FATASAAVPVSTSKPSSDLFDLQP,3.15
21,FATASAAVPVSTSKPSSDLVDLQP,4.12
22,FATASAAVPVSTSKPSSDLEDLQP,4.34
23,FATASAAVPVSTSKPSSDLRDLQP,4.09
24,FATASAAVPVSTSKPSSDLKDLQP,4.33

row,Variant,protein stability index
1,FATASAAVPVSTSKPSSDLQDLQP,4.14
2,FATASAAVPVSTSKPSSDLADLQP,4
3,FATASAAVPVSTSKPSSDLWDLQP,2.97
4,FATASAAVPVSTSKPSSDLGDLQP,4.12
5,FATASAAVPVSTSKPSSDLIDLQP,3.62
6,FATASAAVPVSTSKPSSDLHDLQP,3.9
7,FATASAAVPVSTSKPSSDLSDLQP,4.29
8,FATASAAVPVSTSKPSSDLTDLQP,3.92
9,FATASAAVPVSTSKPSSDLMDLQP,3.74
10,FATASAAVPVSTSKPSSDLDDLQP,4.48
11,FATASAAVPVSTSKPSSDLYDLQP,3.74
12,FATASAAVPVSTSKPSSDLCDLQP,3.93
13,FATASAAVPVSTSKPSSDLPDLQP,4.36
14,FATASAAVPVSTSKPSSDLNDLQP,3.61
15,FATASAAVPVSTSDPSSDLLDLQP,4.36
16,FATASAAVPVSTSLPSSDLLDLQP,3.64
17,FATASAAVPVSTSEPSSDLLDLQP,4.45
18,FATASAAVPVSTSPPSSDLLDLQP,4.15
19,FATASAAVPVSTSWPSSDLLDLQP,2.03
20,FATASAAVPVSTSHPSSDLLDLQP,3.58
21,FATASAAVPVSTSAPSSDLLDLQP,4.16
22,FATASAAVPVSTSRPSSDLLDLQP,3.87
23,FATASAAVPVSTSYPSSDLLDLQP,3.21
24,FATASAAVPVSTSNPSSDLLDLQP,3.89

row,Variant,protein stability index
1,FATASAAVPVSTSFPSSDLLDLQP,2.6
2,FATASAAVPVSTSMPSSDLLDLQP,3.48
3,FATASAAVPVSTSCPSSDLLDLQP,3.61
4,FATASAAVPVSTSGPSSDLLDLQP,3.97
5,FATASAAVPVSTSSPSSDLLDLQP,4.01
6,FATASAAVPVSTSTPSSDLLDLQP,3.97
7,FATASAAVPVSTSQPSSDLLDLQP,4.61
8,FATASAAVPVSTSIPSSDLLDLQP,3.5
9,FATASAAVPVSTSVPSSDLLDLQP,4.05
10,FATASAAVPVSTSKPSSDKLDLQP,3.79
11,FATASAAVPVSTSKPSSDQLDLQP,3.96
12,FATASAAVPVSTSKPSSDWLDLQP,2.5
13,FATASAAVPVSTSKPSSDNLDLQP,4.32
14,FATASAAVPVSTSKPSSDPLDLQP,4.39
15,FATASAAVPVSTSKPSSDYLDLQP,3.56
16,FATASAAVPVSTSKPSSDCLDLQP,4.06
17,FATASAAVPVSTSKPSSDVLDLQP,3.95
18,FATASAAVPVSTSKPSSDILDLQP,3.95
19,FATASAAVPVSTSKPSSDTLDLQP,4.22
20,FATASAAVPVSTSKPSSDFLDLQP,3.7
21,FATASAAVPVSTSKPSSDELDLQP,4.59
22,FATASAAVPVSTSKPSSDMLDLQP,3.81
23,FATASAAVPVSTSKPSSDSLDLQP,4.35
24,FATASAAVPVSTSKPSSDGLDLQP,4.12

row,Variant,protein stability index
1,FATASAAVPVSTSKPSSDRLDLQP,3.98
2,FATASAAVPVSTSKPSSDHLDLQP,4.26
3,FATASAAVPVSTSKPSSDALDLQP,4.02
4,FATASAAVPVSTSKPSSDDLDLQP,4.64
5,FATASAAVPVSTSKPSSDLLDLFP,2.7
6,FATASAAVPVSTSKPSSDLLDLEP,4.46
7,FATASAAVPVSTSKPSSDLLDLKP,3.42
8,FATASAAVPVSTSKPSSDLLDLDP,3.97
9,FATASAAVPVSTSKPSSDLLDLIP,2.92
10,FATASAAVPVSTSKPSSDLLDLHP,3.35
11,FATASAAVPVSTSKPSSDLLDLAP,3.5
12,FATASAAVPVSTSKPSSDLLDLCP,3.61
13,FATASAAVPVSTSKPSSDLLDLLP,3.38
14,FATASAAVPVSTSKPSSDLLDLMP,3.29
15,FATASAAVPVSTSKPSSDLLDLGP,3.79
16,FATASAAVPVSTSKPSSDLLDLNP,4.08
17,FATASAAVPVSTSKPSADLLDLQP,3.68
18,FATASAAVPVSTSKPSDDLLDLQP,4.22
19,FATASAAVPVSTSKPSCDLLDLQP,3.41
20,FATASAAVPVSTSKPSKDLLDLQP,3.47
21,FATASAAVPVSTSKPSRDLLDLQP,3.25
22,FATASAAVPVSTSKPSHDLLDLQP,3.66
23,FATASAAVPVSTSKPSYDLLDLQP,3.2
24,FATASAAVPVSTSKPSPDLLDLQP,3.79

row,Variant,protein stability index
1,FATASAAVPVSTSKPSQDLLDLQP,3.72
2,FATASAAVPVSTSKPSWDLLDLQP,3.31
3,FATASAAVPVSTSKPSGDLLDLQP,3.68
4,FATASAAVPVSTSKPSFDLLDLQP,2.51
5,FATASAAVPVSTSKPSNDLLDLQP,3.85
6,FATASAAVPVSTSKPSIDLLDLQP,2.88
7,FATASAAVPVSTSKPSLDLLDLQP,3.35
8,FATASAAVPVSTSKPSEDLLDLQP,4.13
9,FATASAAVPVSTSKPSTDLLDLQP,4.21
10,FATASAAVPVSTSKPSVDLLDLQP,3.47
11,FATASAAVPVSTSKPSMDLLDLQP,3.56
12,FATASAAVPVSTSKESSDLLDLQP,4.89
13,FATASAAVPVSTSKFSSDLLDLQP,2.54
14,FATASAAVPVSTSKISSDLLDLQP,3.52
15,FATASAAVPVSTSKMSSDLLDLQP,3.17
16,FATASAAVPVSTSKDSSDLLDLQP,4.17
17,FATASAAVPVSTSKSSSDLLDLQP,3.73
18,FATASAAVPVSTSKASSDLLDLQP,3.28
19,FATASAAVPVSTSKGSSDLLDLQP,3.97
20,FATASAAVPVSTSKWSSDLLDLQP,2.19
21,FATASAAVPVSTSKHSSDLLDLQP,3.96
22,FATASAAVPVSTSKTSSDLLDLQP,3.74
23,FATASAAVPVSTSKLSSDLLDLQP,2.72
24,FATASAAVPVSTSKCSSDLLDLQP,3.15

row,Variant,protein stability index
1,FATASAAVPVSTSKNSSDLLDLQP,3.85
2,FATASAAVPVSTSKVSSDLLDLQP,3.14
3,FATASAAVPVSTSKKSSDLLDLQP,3.57
4,FATASAAVPVSTSKRSSDLLDLQP,2.9
5,FATASAAVPVSTSKYSSDLLDLQP,2.99
6,FATASAAVPVSTSKQSSDLLDLQP,3.44
7,FATASAAVPVSTSKPSSDLLDVQP,3.85
8,FATASAAVPVSTSKPSSDLLDKQP,4.16
9,FATASAAVPVSTSKPSSDLLDFQP,3.59
10,FATASAAVPVSTSKPSSDLLDWQP,2.96
11,FATASAAVPVSTSKPSSDLLDCQP,3.84
12,FATASAAVPVSTSKPSSDLLDYQP,3.99
13,FATASAAVPVSTSKPSSDLLDRQP,4.14
14,FATASAAVPVSTSKPSSDLLDIQP,3.71
15,FATASAAVPVSTSKPSSDLLDMQP,3.87
16,FATASAAVPVSTSKPSSDLLDQQP,4.3
17,FATASAAVPVSTSKPSSDLLDNQP,4.4
18,FATASAAVPVSTSKPSSDLLDPQP,4.4
19,FATASAAVPVSTSKPSSDLLDDQP,4.22
20,FATASAAVPVSTSKPSSDLLDEQP,4.76
21,FATASAAVPVSTSKPSSDLLDAQP,4.49
22,FATASAAVPVSTSKPSSDLLDGQP,3.93
23,FATASAAVPVSTSKPSSDLLDHQP,4.07
24,FATASAAVPVSTSKPSSDLLDTQP,4.3

row,Variant,protein stability index
1,FATASAAVPVSTSKPSSDLLDSQP,4.16
2,FATASAAVPVSTSKPSSFLLDLQP,2.23
3,FATASAAVPVSTSKPSSLLLDLQP,2.77
4,FATASAAVPVSTSKPSSWLLDLQP,2.13
5,FATASAAVPVSTSKPSSCLLDLQP,3.42
6,FATASAAVPVSTSKPSSHLLDLQP,3.04
7,FATASAAVPVSTSKPSSALLDLQP,3.44
8,FATASAAVPVSTSKPSSPLLDLQP,3.3
9,FATASAAVPVSTSKPSSYLLDLQP,3.37
10,FATASAAVPVSTSKPSSTLLDLQP,3.17
11,FATASAAVPVSTSKPSSGLLDLQP,3.42
12,FATASAAVPVSTSKPSSKLLDLQP,2.98
13,FATASAAVPVSTSKPSSILLDLQP,3.37
14,FATASAAVPVSTSKPSSVLLDLQP,3.17
15,FATASAAVPVSTSKPSSSLLDLQP,2.99
16,FATASAAVPVSTSKPSSELLDLQP,3.98
17,FATASAAVPVSTSKPSSQLLDLQP,3.19
18,FATASAAVPVSTSKPSSRLLDLQP,2.84
19,FATASAAVPVSTSKPSSNLLDLQP,3.14
20,FATASAAVPVSTSKPSSMLLDLQP,2.87

# Reference: the supplement of paper PMC10567573
